Results reported in US20140296146A1, “Thermostable Inhibitors of Activation of the Blood Clotting System Through Contact with Foreign Surfaces” (Synapse B.V., priority 2011, published 2014).
Several values for one entry are separate records, joined by “and”; a condition that tells them apart may be missing. Identical values can stand only once. Bridges are numbered along the chain shown (N, C = ends). Where no end group is shown, it is not given here.

Columns and labels:
[1] = TICA1 Ala-scan with intact disulfides, activity vs TICA1; details: single amino acid substituted by alanine
From the text: Every single amino acid was substituted by alanine except for cysteine. […] See also FIG. 6.

h-FXIIa [2] = target: T1, h-FXIIa (human, UniProt P00748 20-615); assay: S2302 hydrolysis by h-FXIIa (5.01 nM); inhibitor at RT during 72 hrs, against -80° C.
T1 construct: also called factor XIIa
T1 sequence (looked up): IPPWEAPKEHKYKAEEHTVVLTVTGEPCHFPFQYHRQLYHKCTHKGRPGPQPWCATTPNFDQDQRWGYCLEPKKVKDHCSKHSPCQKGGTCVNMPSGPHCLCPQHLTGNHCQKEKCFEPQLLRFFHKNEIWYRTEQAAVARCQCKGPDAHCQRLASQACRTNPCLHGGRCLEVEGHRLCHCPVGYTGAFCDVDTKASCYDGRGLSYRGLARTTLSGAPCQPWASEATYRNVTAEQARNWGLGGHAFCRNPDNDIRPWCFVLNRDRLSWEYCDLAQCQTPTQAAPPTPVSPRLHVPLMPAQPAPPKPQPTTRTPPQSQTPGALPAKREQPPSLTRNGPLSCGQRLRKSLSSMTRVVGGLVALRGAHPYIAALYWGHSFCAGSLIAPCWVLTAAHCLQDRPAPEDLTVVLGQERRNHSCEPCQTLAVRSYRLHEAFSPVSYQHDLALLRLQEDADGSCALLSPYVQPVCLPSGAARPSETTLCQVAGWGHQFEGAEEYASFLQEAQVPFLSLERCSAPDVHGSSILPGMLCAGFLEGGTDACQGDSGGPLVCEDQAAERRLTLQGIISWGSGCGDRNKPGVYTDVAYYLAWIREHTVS
Method: (§1) Stock FXIIa was diluted 700× in BSA5. The inhibitor was diluted in BSA5 as indicated. Wells contained 70 μl diluted FXIIa (5 nM final), 70 μl inhibitor and 20 μl S2302 (475 or 462.5 μM final). The reaction was started after 5 min heating on the heating plate with S2302. Filters 405 nm and 490 nm reference. Found ΔmA/min was multiplied by 2.14 to get the figure for a 1 cm path.

h-FXIIa [3] = target: T1, h-FXIIa; assay: S2302 hydrolysis by h-FXIIa (5.01 nM); inhibitor kept at -80° C. (reference)
Method: as §1

h-FXIIa [4] = target: T1, h-FXIIa; assay: S2302 hydrolysis by h-FXIIa, fit of residual activity
Method: as §1, with “mΔA/min” for “ΔmA/min”
(§2) in which E=[FXIIa], Ki is the dissociation constant, I=[Inhibitor], kcat and Km are Michaelis constants and S=[S2302].

h-FXIIa [5] = target: T1, h-FXIIa; assay: S2302 hydrolysis by h-FXIIa (5.01 nM); inhibitor kept at -80° C.
Method: as §1

h-FXIIa [6] = target: T1, h-FXIIa; assay: S2302 hydrolysis by h-FXIIa (5 nM), fit of residual activity; dissociation constant of the complex
Method: as §1, with “mΔA/min” for “ΔmA/min”
as §2

h-FXIIa [7] = target: T1, h-FXIIa; assay: S2302 hydrolysis by h-FXIIa (5.01 nM); inhibitor 30 min 95° C., against -80° C.
Method: as §1

h-FXIIa [8] = target: T1, h-FXIIa; assay: S2302 hydrolysis by h-FXIIa (5.01 nM); inhibitor 30 min 95° C.
Method: as §1

h-FXIIa [9] = target: T1, h-FXIIa; assay: S2302 hydrolysis by h-FXIIa (5.01 nM); inhibitor at RT during 72 hrs
Method: as §1

[10] = target: T2, h-FXIIa (human), P00748; assay: S2302 hydrolysis by h-FXIIa (5.01 nM); inhibitor at RT during 72 hrs, against -80° C.
T2 chain: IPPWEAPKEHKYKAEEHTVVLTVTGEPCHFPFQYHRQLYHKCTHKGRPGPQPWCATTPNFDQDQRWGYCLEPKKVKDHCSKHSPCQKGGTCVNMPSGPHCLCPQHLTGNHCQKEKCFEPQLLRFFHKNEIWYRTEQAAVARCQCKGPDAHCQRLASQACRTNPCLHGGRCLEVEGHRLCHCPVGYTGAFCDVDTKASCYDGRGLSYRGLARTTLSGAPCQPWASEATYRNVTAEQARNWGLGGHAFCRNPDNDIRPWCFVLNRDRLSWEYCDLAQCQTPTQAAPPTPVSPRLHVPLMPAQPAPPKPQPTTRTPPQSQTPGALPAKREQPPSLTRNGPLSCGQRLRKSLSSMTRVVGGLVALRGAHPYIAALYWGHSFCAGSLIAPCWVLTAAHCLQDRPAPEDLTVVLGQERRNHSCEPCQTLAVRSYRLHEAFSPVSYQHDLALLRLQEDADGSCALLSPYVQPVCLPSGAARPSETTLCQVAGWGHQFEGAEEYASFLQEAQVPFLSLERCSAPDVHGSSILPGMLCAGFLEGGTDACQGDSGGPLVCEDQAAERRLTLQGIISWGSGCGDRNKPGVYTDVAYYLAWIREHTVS

[11] = target: T2, h-FXIIa (human), …; assay: S2302 hydrolysis by h-FXIIa (5.01 nM); inhibitor 30 min 95° C., against -80° C.
[12] = target: T2, h-FXIIa (human), …; assay: S2302 hydrolysis by h-FXIIa (5.01 nM); inhibitor at RT during 72 hrs
[13] = target: T2, h-FXIIa (human), …; assay: S2302 hydrolysis by h-FXIIa (5.01 nM); inhibitor 30 min 95° C.
[14] = target: T2, h-FXIIa (human), …; assay: cell-based or functional assay
[15] = target: T2, h-FXIIa (human), …; assay: S2302 hydrolysis by h-FXIIa (5.01 nM); inhibitor kept at -80° C. (reference)
[16] = target: T2, h-FXIIa (human), …; assay: FXIIa activity, total FXIIa 9.33 nM, 306 nM TICA1 added after 60 minutes at 95° C.
[17] = target: T2, h-FXIIa (human), …; assay: activity of TICA1 disulfide variants (FIG. 5), reference; assay not named
[18] = target: T2, h-FXIIa (human), …; assay: S2302 hydrolysis by h-FXIIa (5 nM), fit of residual activity; dissociation constant of the complex
[19] = target: T2, h-FXIIa (human), …; assay: S2302 hydrolysis by h-FXIIa (5.01 nM); inhibitor kept at -80° C.
[20] = target: T2, h-FXIIa (human), …; assay: S2302 hydrolysis by h-FXIIa, fit of residual activity
[21] = target: T2, h-FXIIa (human), …; assay: residual inhibitor activity after 60 minutes at 95° C., calculated from free FXIIa (total 9.33 nM)
h-FXIIa (human) = h-FXIIa (human) (UniProt P00748); assay: activity of TICA1 disulfide variants against TICA1 with 3 disulfides (FIG. 5); assay not named
h-FXIIa [22] = target: T1, h-FXIIa; assay: S2302 hydrolysis by F.XIIa; before heating
h-FXIIa [23] = target: T1, h-FXIIa; assay: activity of TICA1 disulfide variants against TICA1 with 3 disulfides (FIG. 5); assay not named

## RVCPAILMKCKKDSDCLAECVCLEHGYCG [TICA1 Ala-scan analogue]
[1]
  Activity vs TICA1: 0.009%

## AVCPRILMKCKKDSDCLAECVCLEHGYCG [TICA1 Ala-scan analogue]
[1]
  Activity vs TICA1: 7.5%

## RVCARILMKCKKDSDCLAECVCLEHGYCG [TICA1 Ala-scan analogue]
[1]
  Activity vs TICA1: 9.0%

## squash trypsin inhibitor (STI), the serpin from Cucurbita Maxima seeds
h-FXIIa [2]
  Res. Act. (%): 106%
h-FXIIa [3]
  Res. Act. (%): 100%
h-FXIIa [4]
  Ki: 251 nM
h-FXIIa [5]
  Ki: 251 nM
h-FXIIa [6]
  Ki: 251 nM
h-FXIIa [7]
  Res. Act. (%): 105%
h-FXIIa [8]
  Ki: 264 nM
h-FXIIa [9]
  Ki: 267 nM

## RVCPRILMKCKKDSDCLAECVCLEHGYCG (modifications not checked) [TICA 1]
[10]
  Res. Act. (%): 102%
[11]
  Res. Act. (%): 94%
[12]
  Ki: 26 nM
[13]
  Ki: 24 nM
[14]
  Activity of FXIIa (mA/min): 33.5 mA/min
[15]
  Res. Act. (%): 100%
[16]
  Free FXIIa: 3.93 nM
[17]
  activity (%): 100%
[18]
  Ki: 25.5 nM
[19]
  Ki: 26 nM
[20]
  Ki: 25.5 nM
[21]
  Residual activity (%): 81.7%

## RVCGIGPRPRLPWPRILMKCKKDSDCLAECVCLEHGYCG (modifications not checked) [PCTI]
[18]
  Ki: 469000 nM

## RVCPRILMKCKKDSDCLAECVCLEHGYCGAAA (modifications not checked) [TICA1-AAA]
[18]
  Ki: 377 nM

## RVCPRILMKAKKDSDCLAECVALEHGYCG (disulfide 16-28, 3-20) [TICA1 with 2 disulfide bonds (C3-C20, C16-C28)]
h-FXIIa (human)
  activity (%): 6.8%

## AAARVCPRILMKCKKDSDCLAECVCLEHGYCG (modifications not checked) [AAA-TICA1]
[18]
  Ki: 104 nM

B1: TICA 3 (peptide)
peptide: HEERVCPRILMKCKKDSDCLAECVCLEHGYCG
notes: Synthetic congener; also called HEE-TICA1
h-FXIIa [2]
  Res. Act. (%): 101%
h-FXIIa [3]
  Res. Act. (%): 100%
h-FXIIa [4]
  Ki: 3090 nM
h-FXIIa [5]
  Ki: 3090 nM
h-FXIIa [22]
  Ki: 10.1 µg/mL and 3.09 µM
h-FXIIa [6]
  Ki: 3090 nM
h-FXIIa [7]
  Res. Act. (%): 103%
h-FXIIa [8]
  Ki: 3180 nM
h-FXIIa [9]
  Ki: 3130 nM

B2: TICA 5 (peptide)
peptide: HEERVCPKILMECKKDSDCLAECICLEHGYCG
notes: Synthetic congener; also called HEE-TICA4
h-FXIIa [2]
  Res. Act. (%): 96%
h-FXIIa [3]
  Res. Act. (%): 100%
h-FXIIa [4]
  Ki: 171000 nM
h-FXIIa [5]
  Ki: 171000 nM
h-FXIIa [22]
  Ki: 556 µg/mL and 171 µM
h-FXIIa [6]
  Ki: 171000 nM
h-FXIIa [7]
  Res. Act. (%): 105%
h-FXIIa [8]
  Ki: 179000 nM
h-FXIIa [9]
  Ki: 165000 nM

## RVCPRILMKAKKDSDALAECVALEHGYAG (disulfide 3-20) [TICA1 with 1 disulfide bond (C3-C20)]
h-FXIIa [23]
  activity (%): 0.003%

## RVCPRILMKCKKDSDALAECVCLEHGYAG (disulfide 10-22, 3-20) [TICA1 with 2 disulfide bonds (C3-C20, C10-C22)]
h-FXIIa [23]
  activity (%): 0.2%

## RVCPKILMECKKDSDCLAECICLEHGYCG (disulfide (positions not given here), Synthetic congener) [TICA 4]
h-FXIIa [2]
  Res. Act. (%): 98%
h-FXIIa [3]
  Res. Act. (%): 100%
h-FXIIa [4]
  Ki: 1420 nM
h-FXIIa [5]
  Ki: 1420 nM
h-FXIIa [22]
  Ki: 4.62 µg/mL and 1.42 µM
h-FXIIa [6]
  Ki: 1420 nM
h-FXIIa [7]
  Res. Act. (%): 94%
h-FXIIa [8]
  Ki: 1340 nM
h-FXIIa [9]
  Ki: 1400 nM

## RVAPRILMKCKKDSDCLAEAVCLEHGYCG (disulfide 10-22, 16-28) [TICA1 with 2 disulfide bonds (C10-C22, C16-C28)]
h-FXIIa [23]
  activity (%): 0.3%

## RVAPRILMKCKKDSDALAEAVCLEHGYAG (disulfide 10-22) [TICA1 with 1 disulfide bond (C10-C22)]
h-FXIIa [23]
  activity (%): 0.003%

## RVCPRILMECKKDSDCLAECVCLEHGYCG (disulfide (positions not given here), Synthetic, folded peptide) [TICA 2]
h-FXIIa [2]
  Res. Act. (%): 105%
h-FXIIa [3]
  Res. Act. (%): 100%
h-FXIIa [4]
  Ki: 109 nM
h-FXIIa [5]
  Ki: 109 nM
h-FXIIa [22]
  Ki: 0.355 µg/mL and 109 nM
h-FXIIa [6]
  Ki: 109 nM
h-FXIIa [7]
  Res. Act. (%): 99%
h-FXIIa [8]
  Ki: 108 nM
h-FXIIa [9]
  Ki: 114 nM

## RVAPRILMKAKKDSDCLAEAVALEHGYCG (disulfide 16-28) [TICA1 with 1 disulfide bond (C16-C28)]
h-FXIIa [23]
  activity (%): 0.006%
